Data as given in patent publication US20070160982A1 (University of Texas, published 2007).

Biological target: GST-F2F3 (GST fusion of CPSF30 zinc fingers F2F3, amino acids 61-121) (UniProt P08515 1-218 = GST)

B1: M186 mutant NS1A protein (other)
chain: MDSNTVSSFQVDCFLWHVRKQVVDQELGDAPFLDRLRRDQKSLRGRGSTLGLNIEAATHVGKQIVEKILKEESDEALKMTMASTPASRYITDMTIEELSRDWFMLMPKQKVEGPLCIRIDQAIMDKNIMLKANFSVIFDRLETLILLRAFTEEGAIVGEISPLPSFPGHTIEDVKNAIGVLIGRFLRYDNTVRVSKTLQRFAWGSSNENGRPPLTPKQKRKMARTARSKVRRDKMAD
modifications: 35S-methionine label (in vitro translated)
B1: no binding.
